Measured values published in patent US20260049138A1 (Chugai, published 2026).

B1: CE115HA000 Y97A one-arm antibody (antibody, human IgG1, kappa, L234A L235A, N297A, name in Kabat numbering)
heavy: QVQLVESGGGVVQPGRSLRLSCAASGFTFSNAWMHWVRQAPGKGLEWVAQIKAKSNNYATYYAESVKGRFTISRDDSKNSLYLQMNSLKTEDTAVYYCRYVHAGAYYGVDAWGQGTTVTVSSASTKGPSVFPLAPSSKSTSGGTAALGCLVKDYFPEPVTVSWNSGALTSGVHTFPAVLQSSGLYSLSSVVTVPSSSLGTQTYICNVNHKPSNTKVDKKVEPKSCDKTHTCPPCPAPEAAGGPSVFLFPPKPKDTLMISRTPEVTCVVVDVSHEDPEVKFNWYVDGVEVHNAKTKPREEQYASTYRVVSVLTVLHQDWLNGKEYKCKVSNKALPAPIEKTISKAKGQPREPQVYTLPPSRCELTKNQVSLSCAVKGFYPSDIAVEWESNGQPENNYKTTPPVLDSDGSFFLVSKLTVDKSRWQQGNVFSCSVMHEALHNHYTQKSLSLSPDYKDDDDK
chain: EPKSSDKTHTCPPCPAPELLGGPSVFLFPPKPKDTLMISRTPEVTCVVVDVSHEDPEVKFNWYVDGVEVHNAKTKPREEQYNSTYRVVSVLTVLHQDWLNGKEYKCKVSNKALPAPIEKTISKAKGQPREPQVCTLPPSRDELTKNQVSLWCLVKGFYPSDIAVEWESNGQPENNYKTTPPVLDSDGSFFLYSKLTVDKSRWQQGNVFSCSVMHEALHNRYTQKSLSLSP
light: DIVMTQSPLSLPVTPGEPASISCRSSQSLVHSNRNTYLHWYQQKPGQAPRLLIYKVSNRFSGVPDRFSGSGSGTDFTLKISRVEAEDVGVYYCGQGTQVPYTFGQGTKLEIKRTVAAPSVFIFPPSDEQLKSGTASVVCLLNNFYPREAKVQWKVDNALQSGNSQESVTEQDSKDSTYSLSSTLTLSKADYEKHKVYACEVTHQGLSSPVTKSFNRGEC
B2: CE115HA000 Y97D one-arm antibody (antibody, human IgG1, kappa, L234A L235A, N297A, name in Kabat numbering)
heavy: QVQLVESGGGVVQPGRSLRLSCAASGFTFSNAWMHWVRQAPGKGLEWVAQIKAKSNNYATYYAESVKGRFTISRDDSKNSLYLQMNSLKTEDTAVYYCRYVHDGAYYGVDAWGQGTTVTVSSASTKGPSVFPLAPSSKSTSGGTAALGCLVKDYFPEPVTVSWNSGALTSGVHTFPAVLQSSGLYSLSSVVTVPSSSLGTQTYICNVNHKPSNTKVDKKVEPKSCDKTHTCPPCPAPEAAGGPSVFLFPPKPKDTLMISRTPEVTCVVVDVSHEDPEVKFNWYVDGVEVHNAKTKPREEQYASTYRVVSVLTVLHQDWLNGKEYKCKVSNKALPAPIEKTISKAKGQPREPQVYTLPPSRCELTKNQVSLSCAVKGFYPSDIAVEWESNGQPENNYKTTPPVLDSDGSFFLVSKLTVDKSRWQQGNVFSCSVMHEALHNHYTQKSLSLSPDYKDDDDK
chain: EPKSSDKTHTCPPCPAPELLGGPSVFLFPPKPKDTLMISRTPEVTCVVVDVSHEDPEVKFNWYVDGVEVHNAKTKPREEQYNSTYRVVSVLTVLHQDWLNGKEYKCKVSNKALPAPIEKTISKAKGQPREPQVCTLPPSRDELTKNQVSLWCLVKGFYPSDIAVEWESNGQPENNYKTTPPVLDSDGSFFLYSKLTVDKSRWQQGNVFSCSVMHEALHNRYTQKSLSLSP
light: DIVMTQSPLSLPVTPGEPASISCRSSQSLVHSNRNTYLHWYQQKPGQAPRLLIYKVSNRFSGVPDRFSGSGSGTDFTLKISRVEAEDVGVYYCGQGTQVPYTFGQGTKLEIKRTVAAPSVFIFPPSDEQLKSGTASVVCLLNNFYPREAKVQWKVDNALQSGNSQESVTEQDSKDSTYSLSSTLTLSKADYEKHKVYACEVTHQGLSSPVTKSFNRGEC
B3: CE115HA000 Y97G one-arm antibody (antibody, human IgG1, kappa, L234A L235A, N297A, name in Kabat numbering)
heavy: QVQLVESGGGVVQPGRSLRLSCAASGFTFSNAWMHWVRQAPGKGLEWVAQIKAKSNNYATYYAESVKGRFTISRDDSKNSLYLQMNSLKTEDTAVYYCRYVHGGAYYGVDAWGQGTTVTVSSASTKGPSVFPLAPSSKSTSGGTAALGCLVKDYFPEPVTVSWNSGALTSGVHTFPAVLQSSGLYSLSSVVTVPSSSLGTQTYICNVNHKPSNTKVDKKVEPKSCDKTHTCPPCPAPEAAGGPSVFLFPPKPKDTLMISRTPEVTCVVVDVSHEDPEVKFNWYVDGVEVHNAKTKPREEQYASTYRVVSVLTVLHQDWLNGKEYKCKVSNKALPAPIEKTISKAKGQPREPQVYTLPPSRCELTKNQVSLSCAVKGFYPSDIAVEWESNGQPENNYKTTPPVLDSDGSFFLVSKLTVDKSRWQQGNVFSCSVMHEALHNHYTQKSLSLSPDYKDDDDK
chain: EPKSSDKTHTCPPCPAPELLGGPSVFLFPPKPKDTLMISRTPEVTCVVVDVSHEDPEVKFNWYVDGVEVHNAKTKPREEQYNSTYRVVSVLTVLHQDWLNGKEYKCKVSNKALPAPIEKTISKAKGQPREPQVCTLPPSRDELTKNQVSLWCLVKGFYPSDIAVEWESNGQPENNYKTTPPVLDSDGSFFLYSKLTVDKSRWQQGNVFSCSVMHEALHNRYTQKSLSLSP
light: DIVMTQSPLSLPVTPGEPASISCRSSQSLVHSNRNTYLHWYQQKPGQAPRLLIYKVSNRFSGVPDRFSGSGSGTDFTLKISRVEAEDVGVYYCGQGTQVPYTFGQGTKLEIKRTVAAPSVFIFPPSDEQLKSGTASVVCLLNNFYPREAKVQWKVDNALQSGNSQESVTEQDSKDSTYSLSSTLTLSKADYEKHKVYACEVTHQGLSSPVTKSFNRGEC
B4: CE115HA000 Y97P one-arm antibody (antibody, human IgG1, kappa, L234A L235A, N297A, name in Kabat numbering)
heavy: QVQLVESGGGVVQPGRSLRLSCAASGFTFSNAWMHWVRQAPGKGLEWVAQIKAKSNNYATYYAESVKGRFTISRDDSKNSLYLQMNSLKTEDTAVYYCRYVHPGAYYGVDAWGQGTTVTVSSASTKGPSVFPLAPSSKSTSGGTAALGCLVKDYFPEPVTVSWNSGALTSGVHTFPAVLQSSGLYSLSSVVTVPSSSLGTQTYICNVNHKPSNTKVDKKVEPKSCDKTHTCPPCPAPEAAGGPSVFLFPPKPKDTLMISRTPEVTCVVVDVSHEDPEVKFNWYVDGVEVHNAKTKPREEQYASTYRVVSVLTVLHQDWLNGKEYKCKVSNKALPAPIEKTISKAKGQPREPQVYTLPPSRCELTKNQVSLSCAVKGFYPSDIAVEWESNGQPENNYKTTPPVLDSDGSFFLVSKLTVDKSRWQQGNVFSCSVMHEALHNHYTQKSLSLSPDYKDDDDK
chain: EPKSSDKTHTCPPCPAPELLGGPSVFLFPPKPKDTLMISRTPEVTCVVVDVSHEDPEVKFNWYVDGVEVHNAKTKPREEQYNSTYRVVSVLTVLHQDWLNGKEYKCKVSNKALPAPIEKTISKAKGQPREPQVCTLPPSRDELTKNQVSLWCLVKGFYPSDIAVEWESNGQPENNYKTTPPVLDSDGSFFLYSKLTVDKSRWQQGNVFSCSVMHEALHNRYTQKSLSLSP
light: DIVMTQSPLSLPVTPGEPASISCRSSQSLVHSNRNTYLHWYQQKPGQAPRLLIYKVSNRFSGVPDRFSGSGSGTDFTLKISRVEAEDVGVYYCGQGTQVPYTFGQGTKLEIKRTVAAPSVFIFPPSDEQLKSGTASVVCLLNNFYPREAKVQWKVDNALQSGNSQESVTEQDSKDSTYSLSSTLTLSKADYEKHKVYACEVTHQGLSSPVTKSFNRGEC

Target: T1, CD3ε homodimer protein (human, UniProt P07766 23-126, limits assumed, sulfo-tag or biotin label in the ECL assays; amine-coupled to the chip in SPR)
T1 construct: also called human CD3ε homodimer protein; CD3 (CD3ε)
Assay: SPR Biacore T200; CD3ε homodimer on CM4 chip;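 note: Single-residue variant antibodies injected as analyte over CD3ε homodimer immobilized by amine coupling, run at 25 °C in HBS-EP+ buffer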

T1 sequence (P07766 23-126 limits assumed): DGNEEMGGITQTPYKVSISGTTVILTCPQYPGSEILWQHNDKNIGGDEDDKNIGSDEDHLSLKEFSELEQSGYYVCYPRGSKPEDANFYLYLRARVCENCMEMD

Binder | ratio of amounts bound Z=Y/X (altered form / CE115HA000)
B1 | 0.16
B2 | 0.24
B3 | 0.18
B4 | 0.11
